Substrate: Nc1ncnc2c1ncn2[C@@H]1O[C@H](COP(=O)(O)OP(=O)(O)OP(=O)(O)O)[C@@H](O)[C@H]1O
Experiment: Pi release, Lineweaver-Burk plot
Format: biochemical, Glycine max
Details: pH and temperature not stated for kinetics (substrate tests in 45 mM Na-acetate pH 5.0)

Protein	Km [µM]
GmPAP7b (Glycine max) (protein) MASSLNQRMVFPVMVVVGMFCLLVTPSIAELPRFKHPPKKQQSLNILVLGDWGRKGTYNQSLVANQMGIVGEKLDIDFVISTGDNFYEDGLKGVDDPAFYQSFIHMYTAPSLQKTWYTVLGNHDYRGDVEAQLSPILKQKDSRWLCMRSFILDGEIVEFFFVDTTPFVEEYFTDPGEHTYDWEGVLPRLAYVSKLLKDVDSALAQSKAKWKMVVGHHTINSAGHHGSTEDLKQLLVPILEANNVDAYINGHDHCLQHIIDNNNGIHFITSGGGSKAWSGDVKPWKLEELKLYYDGQGFMSMQITKSTAYIIFYDAFGKVLHTWSISKDRNVAAWI	66
GmPAP7a (Glycine max) (protein) MASSLNQRMLFPLMFVIGMFCLMVTPSIAELPIFKHPPKKQQSLNILVLGDWGRKGTYNQSLVANQMGIVGEKLDIDFVISTGDNFYEDGLKGVDDPAFYQSFVDMYTAPSLQKTWYTVLGNHDYRGDVGAQLSPILKQKDSRWLCMRSFILDGEIVEFFFVDTTPFVEEYFTDPGEHTYDWEGVLPRLAYLSELLKDVDLALAQSKAKWKMVVGHHTINSAGHHGNTEELKQLLVPILEANDVDAYINGHDHCLQHIIDNNSGIHFITSGGGSKAWSGDVKPWKLEELKLYYDGQGFMSMQITKSKADIIFYDAFGKVLHTWSISKDRNVAAWI	110

From publication PMC7326820, “Characterization of Purple Acid Phosphatase Family and Functional Analysis of GmPAP7a/7b Involved in Extracellular ATP Utilization in Soybean” (Frontiers in Plant Science, 2020)
